Laboratory results published in patent US12679878B2, “CRF2 receptor agonists and their use in therapy” (SANOFI, priority 2020, dated 2026).
Starred links: 1 amine or outer side, 2 acyl side, 3 side chain; linkers in the order of their positions; H or OH if unused. Non-standard residues stand in square brackets, D forms with d. Groups on a side chain read outwards from the residue. No end group written: not given here. *: point of attachment. C20 diacid = O=C(O)CCCCCCCCCCCCCCCCCCC(=O)*; C18 diacid = O=C(O)CCCCCCCCCCCCCCCCC(=O)*; γGlu = O=C(O)[C@H](CCC(=O)[*:2])N[*:1]; AEEA = NCCOCCOCC(=O)O; Aib = CC(C)(N)C(=O)O

T1: anti-target CRF1R receptor (UniProt P34998 24-415, limits assumed)
T1 sequence (looked up): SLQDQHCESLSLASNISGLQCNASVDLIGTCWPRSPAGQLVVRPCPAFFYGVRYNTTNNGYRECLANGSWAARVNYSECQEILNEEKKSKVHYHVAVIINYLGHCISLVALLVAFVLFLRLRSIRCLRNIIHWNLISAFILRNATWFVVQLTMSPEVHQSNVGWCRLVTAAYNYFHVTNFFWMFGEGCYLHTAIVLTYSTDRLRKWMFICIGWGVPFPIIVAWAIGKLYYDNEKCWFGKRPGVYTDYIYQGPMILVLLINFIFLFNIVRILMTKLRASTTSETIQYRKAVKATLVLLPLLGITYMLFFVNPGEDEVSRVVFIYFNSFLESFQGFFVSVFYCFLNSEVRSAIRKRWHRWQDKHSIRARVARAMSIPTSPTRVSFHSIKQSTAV


What was measured:
rat CRF2R α receptor = rat CRF2R α receptor (rat, UniProt P47866 20-411); test: cell-based or functional assay
[1] = biological target: T1, anti-target CRF1R receptor; test: cell-based or functional assay

rat CRF2R α receptor, sequence (P47866 20-411): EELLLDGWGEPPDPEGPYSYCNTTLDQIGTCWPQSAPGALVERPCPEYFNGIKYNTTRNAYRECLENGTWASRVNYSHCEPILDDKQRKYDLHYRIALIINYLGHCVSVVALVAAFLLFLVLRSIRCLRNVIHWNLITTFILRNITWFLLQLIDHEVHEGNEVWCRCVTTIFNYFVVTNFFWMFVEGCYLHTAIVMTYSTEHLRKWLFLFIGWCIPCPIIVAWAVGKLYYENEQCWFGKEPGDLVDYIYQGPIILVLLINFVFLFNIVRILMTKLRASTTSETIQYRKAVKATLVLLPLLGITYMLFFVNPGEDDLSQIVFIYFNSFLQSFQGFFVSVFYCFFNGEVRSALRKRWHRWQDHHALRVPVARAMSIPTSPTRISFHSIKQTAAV

Binder | EC50 [nM], 0% HSA (cAMP, A7R5 cells) (rat CRF2R α receptor) [nM] | EC50[nM] 0% HSA (cAMP, CRF1R-overexpression CHO cells) [1] [nM] | Emax (%) (cAMP, CRF1R-overexpression CHO cells) [1]
IVLSLDVPTKLK([AEEA-AEEA-γGlu-C20 diacid])QILLEQERQKKQREQAETN[Aib]QILAQV-NH2 (N-terminus assumed; SMILES CC[C@H](C)[C@H](N)C(=O)N[C@H](C(=O)N[C@@H](CC(C)C)C(=O)N[C@@H](CO)C(=O)N[C@@H](CC(C)C)C(=O)N[C@@H](CC(=O)O)C(=O)N[C@H](C(=O)N1CCC[C@H]1C(=O)N[C@H](C(=O)N[C@@H](CCCCN)C(=O)N[C@@H](CC(C)C)C(=O)N[C@@H](CCCCNC(=O)COCCOCCNC(=O)COCCOCCNC(=O)CC[C@H](NC(=O)CCCCCCCCCCCCCCCCCCC(=O)O)C(=O)O)C(=O)N[C@@H](CCC(N)=O)C(=O)N[C@H](C(=O)N[C@@H](CC(C)C)C(=O)N[C@@H](CC(C)C)C(=O)N[C@@H](CCC(=O)O)C(=O)N[C@@H](CCC(N)=O)C(=O)N[C@@H](CCC(=O)O)C(=O)N[C@@H](CCCNC(=N)N)C(=O)N[C@@H](CCC(N)=O)C(=O)N[C@@H](CCCCN)C(=O)N[C@@H](CCCCN)C(=O)N[C@@H](CCC(N)=O)C(=O)N[C@@H](CCCNC(=N)N)C(=O)N[C@@H](CCC(=O)O)C(=O)N[C@@H](CCC(N)=O)C(=O)N[C@@H](C)C(=O)N[C@@H](CCC(=O)O)C(=O)N[C@H](C(=O)N[C@@H](CC(N)=O)C(=O)NC(C)(C)C(=O)N[C@@H](CCC(N)=O)C(=O)N[C@H](C(=O)N[C@@H](CC(C)C)C(=O)N[C@@H](C)C(=O)N[C@@H](CCC(N)=O)C(=O)N[C@H](C(N)=O)C(C)C)[C@@H](C)CC)[C@@H](C)O)[C@@H](C)CC)[C@@H](C)O)C(C)C)C(C)C) [peptide of SEQ ID NO: 80] | 5.2 | > 1000 | 12.7
IVLSLDVPIKLK([AEEA-AEEA-γGlu-C18 diacid])QILLKQERQKKQRQKAETNKQILAQV-NH2 (N-terminus assumed; SMILES CC[C@H](C)[C@H](N)C(=O)N[C@H](C(=O)N[C@@H](CC(C)C)C(=O)N[C@@H](CO)C(=O)N[C@@H](CC(C)C)C(=O)N[C@@H](CC(=O)O)C(=O)N[C@H](C(=O)N1CCC[C@H]1C(=O)N[C@H](C(=O)N[C@@H](CCCCN)C(=O)N[C@@H](CC(C)C)C(=O)N[C@@H](CCCCNC(=O)COCCOCCNC(=O)COCCOCCNC(=O)CC[C@H](NC(=O)CCCCCCCCCCCCCCCCC(=O)O)C(=O)O)C(=O)N[C@@H](CCC(N)=O)C(=O)N[C@H](C(=O)N[C@@H](CC(C)C)C(=O)N[C@@H](CC(C)C)C(=O)N[C@@H](CCCCN)C(=O)N[C@@H](CCC(N)=O)C(=O)N[C@@H](CCC(=O)O)C(=O)N[C@@H](CCCNC(=N)N)C(=O)N[C@@H](CCC(N)=O)C(=O)N[C@@H](CCCCN)C(=O)N[C@@H](CCCCN)C(=O)N[C@@H](CCC(N)=O)C(=O)N[C@@H](CCCNC(=N)N)C(=O)N[C@@H](CCC(N)=O)C(=O)N[C@@H](CCCCN)C(=O)N[C@@H](C)C(=O)N[C@@H](CCC(=O)O)C(=O)N[C@H](C(=O)N[C@@H](CC(N)=O)C(=O)N[C@@H](CCCCN)C(=O)N[C@@H](CCC(N)=O)C(=O)N[C@H](C(=O)N[C@@H](CC(C)C)C(=O)N[C@@H](C)C(=O)N[C@@H](CCC(N)=O)C(=O)N[C@H](C(N)=O)C(C)C)[C@@H](C)CC)[C@@H](C)O)[C@@H](C)CC)[C@@H](C)CC)C(C)C)C(C)C) [peptide of SEQ ID NO: 77] | 3.26 | > 1000 | 1.56
IVLSLDVPIKLK([AEEA-AEEA-γGlu-C18 diacid])QILLEQEKQK[Aib]QREQAETNKQILAQV-NH2 (N-terminus assumed; SMILES CC[C@H](C)[C@H](N)C(=O)N[C@H](C(=O)N[C@@H](CC(C)C)C(=O)N[C@@H](CO)C(=O)N[C@@H](CC(C)C)C(=O)N[C@@H](CC(=O)O)C(=O)N[C@H](C(=O)N1CCC[C@H]1C(=O)N[C@H](C(=O)N[C@@H](CCCCN)C(=O)N[C@@H](CC(C)C)C(=O)N[C@@H](CCCCNC(=O)COCCOCCNC(=O)COCCOCCNC(=O)CC[C@H](NC(=O)CCCCCCCCCCCCCCCCC(=O)O)C(=O)O)C(=O)N[C@@H](CCC(N)=O)C(=O)N[C@H](C(=O)N[C@@H](CC(C)C)C(=O)N[C@@H](CC(C)C)C(=O)N[C@@H](CCC(=O)O)C(=O)N[C@@H](CCC(N)=O)C(=O)N[C@@H](CCC(=O)O)C(=O)N[C@@H](CCCCN)C(=O)N[C@@H](CCC(N)=O)C(=O)N[C@@H](CCCCN)C(=O)NC(C)(C)C(=O)N[C@@H](CCC(N)=O)C(=O)N[C@@H](CCCNC(=N)N)C(=O)N[C@@H](CCC(=O)O)C(=O)N[C@@H](CCC(N)=O)C(=O)N[C@@H](C)C(=O)N[C@@H](CCC(=O)O)C(=O)N[C@H](C(=O)N[C@@H](CC(N)=O)C(=O)N[C@@H](CCCCN)C(=O)N[C@@H](CCC(N)=O)C(=O)N[C@H](C(=O)N[C@@H](CC(C)C)C(=O)N[C@@H](C)C(=O)N[C@@H](CCC(N)=O)C(=O)N[C@H](C(N)=O)C(C)C)[C@@H](C)CC)[C@@H](C)O)[C@@H](C)CC)[C@@H](C)CC)C(C)C)C(C)C) [peptide of SEQ ID NO: 79] | 3.99 | > 1000 | 8.74

Further lines, results first:

EC50 [nM], 0% HSA (cAMP, A7R5 cells) (rat CRF2R α receptor) [nM] | EC50[nM] 0% HSA (cAMP, CRF1R-overexpression CHO cells) [1] [nM] | Emax (%) (cAMP, CRF1R-overexpression CHO cells) [1] | Binder
0.73 | > 1000 | 0.14 | IVLSLDVPIKLK([AEEA-AEEA-γGlu-C18 diacid])QILLKQERQKKQREQAETNKQILAQV-NH2 (N-terminus assumed; SMILES CC[C@H](C)[C@H](N)C(=O)N[C@H](C(=O)N[C@@H](CC(C)C)C(=O)N[C@@H](CO)C(=O)N[C@@H](CC(C)C)C(=O)N[C@@H](CC(=O)O)C(=O)N[C@H](C(=O)N1CCC[C@H]1C(=O)N[C@H](C(=O)N[C@@H](CCCCN)C(=O)N[C@@H](CC(C)C)C(=O)N[C@@H](CCCCNC(=O)COCCOCCNC(=O)COCCOCCNC(=O)CC[C@H](NC(=O)CCCCCCCCCCCCCCCCC(=O)O)C(=O)O)C(=O)N[C@@H](CCC(N)=O)C(=O)N[C@H](C(=O)N[C@@H](CC(C)C)C(=O)N[C@@H](CC(C)C)C(=O)N[C@@H](CCCCN)C(=O)N[C@@H](CCC(N)=O)C(=O)N[C@@H](CCC(=O)O)C(=O)N[C@@H](CCCNC(=N)N)C(=O)N[C@@H](CCC(N)=O)C(=O)N[C@@H](CCCCN)C(=O)N[C@@H](CCCCN)C(=O)N[C@@H](CCC(N)=O)C(=O)N[C@@H](CCCNC(=N)N)C(=O)N[C@@H](CCC(=O)O)C(=O)N[C@@H](CCC(N)=O)C(=O)N[C@@H](C)C(=O)N[C@@H](CCC(=O)O)C(=O)N[C@H](C(=O)N[C@@H](CC(N)=O)C(=O)N[C@@H](CCCCN)C(=O)N[C@@H](CCC(N)=O)C(=O)N[C@H](C(=O)N[C@@H](CC(C)C)C(=O)N[C@@H](C)C(=O)N[C@@H](CCC(N)=O)C(=O)N[C@H](C(N)=O)C(C)C)[C@@H](C)CC)[C@@H](C)O)[C@@H](C)CC)[C@@H](C)CC)C(C)C)C(C)C) [peptide of SEQ ID NO: 85]
1.83 | > 1000 | 7.51 | IVLSLD[dV]PIGLK([AEEA-AEEA-γGlu-C18 diacid])QILLKQERQKK[Aib]REQAETNKRILERV-NH2 (N-terminus assumed; SMILES CC[C@H](C)[C@H](N)C(=O)N[C@H](C(=O)N[C@@H](CC(C)C)C(=O)N[C@@H](CO)C(=O)N[C@@H](CC(C)C)C(=O)N[C@@H](CC(=O)O)C(=O)N[C@@H](C(=O)N1CCC[C@H]1C(=O)N[C@H](C(=O)NCC(=O)N[C@@H](CC(C)C)C(=O)N[C@@H](CCCCNC(=O)COCCOCCNC(=O)COCCOCCNC(=O)CC[C@H](NC(=O)CCCCCCCCCCCCCCCCC(=O)O)C(=O)O)C(=O)N[C@@H](CCC(N)=O)C(=O)N[C@H](C(=O)N[C@@H](CC(C)C)C(=O)N[C@@H](CC(C)C)C(=O)N[C@@H](CCCCN)C(=O)N[C@@H](CCC(N)=O)C(=O)N[C@@H](CCC(=O)O)C(=O)N[C@@H](CCCNC(=N)N)C(=O)N[C@@H](CCC(N)=O)C(=O)N[C@@H](CCCCN)C(=O)N[C@@H](CCCCN)C(=O)NC(C)(C)C(=O)N[C@@H](CCCNC(=N)N)C(=O)N[C@@H](CCC(=O)O)C(=O)N[C@@H](CCC(N)=O)C(=O)N[C@@H](C)C(=O)N[C@@H](CCC(=O)O)C(=O)N[C@H](C(=O)N[C@@H](CC(N)=O)C(=O)N[C@@H](CCCCN)C(=O)N[C@@H](CCCNC(=N)N)C(=O)N[C@H](C(=O)N[C@@H](CC(C)C)C(=O)N[C@@H](CCC(=O)O)C(=O)N[C@@H](CCCNC(=N)N)C(=O)N[C@H](C(N)=O)C(C)C)[C@@H](C)CC)[C@@H](C)O)[C@@H](C)CC)[C@@H](C)CC)C(C)C)C(C)C) [peptide of SEQ ID NO: 83]
